The values that follow are results of earlier work, collected in article PMC3415683.

pKd: −log10 of the molar value.

This series concerns the target Dll-1 DSL-EGF3 (Homo sapiens) (UniProt O00548). The experiment in a line: SPR.
Sequence of UniProt O00548 (O00548 177-325): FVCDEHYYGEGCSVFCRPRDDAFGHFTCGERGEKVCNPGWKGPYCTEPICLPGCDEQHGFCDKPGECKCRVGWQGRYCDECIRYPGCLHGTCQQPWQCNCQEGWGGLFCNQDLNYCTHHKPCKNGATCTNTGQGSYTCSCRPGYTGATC

The pKd is the Kd on a negative log10 scale, so that one unit is a factor of ten. Notch1 EGF11-14 (from UniProt P46531): the pKd is 3.89.
